From IntAct's records for PubMed 25332407 come the findings set out here.

The labels stand for the following.
B1: Nuclear distribution protein nudE homolog 1 (Homo sapiens), Q9NXR1 (parent)
chain: MEDSGKTFSSEEEEANYWKDLAMTYKQRAENTQEELREFQEGSREYEAELETQLQQIETRNRDLLSENNRLRMELETIKEKFEVQHSEGYRQISALEDDLAQTKAIKDQLQKYIRELEQANDDLERAKRATIMSLEDFEQRLNQAIERNAFLESELDEKENLLESVQRLKDEARDLRQELAVQQKQEKPRTPMPSSVEAERTDTAVQATGSVPSTPIAHRGPSSSLNTPGSFRRGLDDSTGGTPLTPAARISALNIVGDLLRKVGALESKLASCRNLVYDQSPNRTGGPASGRSSKNRDGGERRPSSTSVPLGDKGLDTSCRWLSKSTTRSSSSC

Variants of B1 are the subject of the assay. Particulars: with 1433e_human YWHAE.
For the variant R234C, the “effect of a mutation on the interaction” value is reported as “with no effect”.
For S214F, the “effect of a mutation on the interaction” value is “decreasing interaction strength”.
Turning to S214A, the “effect of a mutation on the interaction” value is given as “with no effect”.
The result for T215A reads “decreasing interaction strength”.
